Laboratory results taken from patent publication US20070154994.

Target: T1, TGF-β receptor I-K coil fusion protein (kinase domain)
T1 chain: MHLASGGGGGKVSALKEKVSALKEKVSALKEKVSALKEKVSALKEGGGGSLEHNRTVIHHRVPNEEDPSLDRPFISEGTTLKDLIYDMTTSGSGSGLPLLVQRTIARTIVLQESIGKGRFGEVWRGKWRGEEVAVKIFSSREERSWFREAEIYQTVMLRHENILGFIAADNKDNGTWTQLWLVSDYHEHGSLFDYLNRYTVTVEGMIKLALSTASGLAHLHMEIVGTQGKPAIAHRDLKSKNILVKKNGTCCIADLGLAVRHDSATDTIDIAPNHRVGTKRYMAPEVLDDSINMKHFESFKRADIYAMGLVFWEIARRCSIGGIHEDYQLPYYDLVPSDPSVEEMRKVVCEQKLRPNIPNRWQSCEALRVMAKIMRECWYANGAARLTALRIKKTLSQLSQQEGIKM

B1: TGF-β receptor II-E coil fusion protein (kinase domain) (protein)
chain: MHLASGGGGGEVSALEKEVSALEKEVSALEKEVSALEKEVSALEKGGGGSLERVNRQQKLSSTWETGKTRKLMEFSEHCAIILEDDRSDISSTCANNINHNTELLPIELDTLVGKGRFAEVYKAKLKQNTSEQFETVAVKIFPYEEYASWKTEKDIFSDINLKHENILQFLTAEERKTELGKQYWLITAFHAKGNLQEYLTRHVISWEDLRKLGSSLARGIAHLHSDHTPCGRPKMPIVHRDLKSSNILVKNDLTCCLCDFGLSLRLDPTLSVDDLANSGQVGTARYMAPEVLESRMNLENAESFKQTDVYSMALVLWEMTSRCNAVGEVKDYEPPFGSKVREHPCVESMKDNVLRDRGRPEIPSFWLNHQGIQMVCETLTECWDHDPEARLTAQCVAERFSELEHLDRLSGRSCSEEKIPEDGSLNTTK
autophosphorylation with P33-gamma ATP, SDS-PAGE and phosphorimaging: Lane 4 corresponding to the heterodimer shows the most autophosphorylation
